Measured values taken from publication PMC4033772 (The Journal of Cell Biology, 2014).

Target: the molecule itself
Experiment: SEC + other: sucrose gradient sedimentation

B1: FLAG-tagged Stu1 (natural protein, S. cerevisiae, UniProt P38198 1-1513, looked up)
chain: MSSFNNETNNNSNTNTHPDDSFPLYTVFKDESVPIEEKMALLTRFKGHVKKELVNESSIQAYFAALLFISGHYAYRSYPRLIFLSHSSLCYLIKRVAMQSPVQFNDTLVEQLLNHLIFELPNEKKFWLASIKAIEAIYLVNPSKIQAILANFLRRPSENQNGDYLNRIKSTLLTIDELIQINEKNNSNHLQLLRFFMLSFTNLLNNNLNEHANDDNNNVIIELIFDIMYKYLKMDDENSQDLIDGFINDLEVEKFKQKFISLAKSQDQHGSQEDKSTLFDEEYEFQLLLAEAKLPQLSNNLSSKDPAMKKNYESLNQLQQDLENLLAPFQSVKETEQNWKLRQSNIIELDNIISGNIPKDNPEEFVTVIKEVQLIELISRATSSLRTTLSLTALLFLKRLIHILNDQLPLSILDQIFVIFKNLLSSTKKISSQTAFHCLITLIIDINHFHNKLFQLSFLLINEKTVTPRFCSAILLRSFLIKFNDSNLSLNNSNTTSPTSKLENNIIYIEEWLKKGISDSQTTVREAMRLTFWYFYKCYPTNAKRLLSSSFSPQLKKATELAIPAHLNINYQVSRVSSTASASSATSRLYSHSSNNSSRKTSLLEQKRNYPSYAQPTQSSSTSLLNAPAVTAGGSVIASKLSNKLKTNLRSTSEYSSKENEKRARHHDSMNSVSNSNTKDNNNVTKRKVSAPPSSTAATKVSENYTNFDDFPSNQIDLTDELSNSYSNPLIKKYMDKNDVSMSSSPISLKGSNKLGEYETLYKKFNDASFPAQIKDALQYLQKELLLTSQQSSSAPKFEFPMIMKKLRQIMIKSPNDFKPFLSIEKFTNGVPLNYLIELYSINSFDYAEILKNRMNPEKPYELTNLIITIADLFNFLNANNCPNDFKLYYMKYKTTFFNYNFKLLLEIFRNLNIKHDNTLRSGTNDLMPKISMILFQIYGKEFDYTCYFNLIFEIYKFDNNRFNKLLADFDIVSTKMKICHELEKKDANFKVEDIISRESSVSFTPIDNKKSEGDEESDDAVDENDVKKCMEMTMINPFKNLETDKTLELKNNVGKRTSSTDSVVIHDDNDKDKKLSEMTKIVSVYQLDQPNPAKEEDDIDMENSQKSDLNLSEIFQNSGENTERKLKDDNEPTVKFSTDPPKIINEPEKLIGNGNENEKPDLETMSPIKINGDENMGQKQRITVKRERDVALTEQDINSKKMKLVNNKKSEKMHLLIMDNFPRDSLTVYEISHLLMVDSNGNTLMDFDVYFNHMSKAINRIKSGSFTMKHINYLIEPLITCFQNQKMTDWLTNENGFDELLDVAIMLLKSTDDTPSIPSKISSKSIILVHCLLVWKKFLNTLSENADDDGVSVRMCFEEVWEQILLMLNKFSDYGNEIYKLAQEFRDSLMLSHFFKKHSATRILSMLVTEIQPDTAGVKETFLIETLWKMLQSPTICQQFKKSNISEIIQTMSYFIMGTDNTSWNFTSAVVLARCLRVLQTTPDYTEQETERLFDCLPKNVFKMIMFIASNE
stoichiometry N: 2
